Assay [1] deals with T1, PFV-Gag-NtD (amino terminal domain of Prototypic Foamy Virus Gag, residues 1-179) (Prototypic foamy virus (PFV), UniProt P14349 1-179).
T1 chain: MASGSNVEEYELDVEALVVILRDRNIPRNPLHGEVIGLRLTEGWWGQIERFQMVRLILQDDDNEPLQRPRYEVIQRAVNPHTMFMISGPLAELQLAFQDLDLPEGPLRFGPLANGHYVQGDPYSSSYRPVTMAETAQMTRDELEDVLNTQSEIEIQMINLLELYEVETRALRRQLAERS
Briefly: AUC.

The next assay deals with T2, PFV-Gag-NtD V14S (Prototypic foamy virus (PFV), UniProt P14349 1-179, V14S).
T2 construct: Gag of Prototypic Foamy Virus, residues 1-179 (Gag-NtD) with V14S
T2 sequence (looked up): T1 chain with V14S
Description: AUC; sedimentation velocity of 75 µM equimolar mixtures of Gag-NtD and Env peptide, absorbance at 280 nm; bound fraction from the integrated absorbance of the 3S species in C(S). Particulars: both partners purified.

The next assay has as its target T3, PFV-Gag-NtD V18S/L21S (Prototypic foamy virus (PFV), UniProt P14349 1-179, V18S | L21S).
T3 construct: Gag of Prototypic Foamy Virus, residues 1-179 (Gag-NtD) with V18S and L21S
T3 sequence (looked up): T1 chain with V18S, L21S
The description is as above. Particulars: both partners purified.

The next assay deals with T4, PFV-Gag-NtD L21S (Prototypic foamy virus (PFV), UniProt P14349 1-179, L21S).
T4 construct: Gag of Prototypic Foamy Virus, residues 1-179 (Gag-NtD) with L21S
T4 sequence (looked up): T1 chain with L21S
The assay is described as above. The following applies: both partners purified.

A further assay deals with T5, PFV-Gag-NtD N29Q (Prototypic foamy virus (PFV), UniProt P14349 1-179, N29Q).
T5 construct: Gag of Prototypic Foamy Virus, residues 1-179 (Gag-NtD) with N29Q
T5 sequence (looked up): T1 chain with N29Q
Described as above. Particulars: both partners purified.

Another assay concerns the target T6, PFV-Gag-NtD V14S/L21S (Prototypic foamy virus (PFV), UniProt P14349 1-179, V14S | L21S).
T6 construct: Gag of Prototypic Foamy Virus, residues 1-179 (Gag-NtD) with V14S and L21S; also called Val14/Leu21 to serine
T6 sequence (looked up): T1 chain with V14S, L21S
The assay is described as above. Particulars: both partners purified.

A further assay deals with T7, PFV-Gag-NtD L21N (Prototypic foamy virus (PFV), UniProt P14349 1-179, L21N).
T7 construct: Gag of Prototypic Foamy Virus, residues 1-179 (Gag-NtD) with L21N
T7 sequence (looked up): T1 chain with L21N
The description is as above. Particulars: both partners purified.

Assay [2] addresses T8, PFV-Gag-NtD (amino terminal domain of Prototypic Foamy Virus Gag, residues 1-179) (Prototypic foamy virus (PFV), UniProt P14349 1-179).
T8 construct: source: E. coli Rosetta 2 (DE3), purified (Ni-NTA, Superdex 200 SEC); not shown: His-tag, N-terminal, kept
T8 sequence: T1 chain
The description is as above. The following applies: both partners purified.

Residue numbers refer to the chain shown, from its start.

As usually defined, the Kd is the equilibrium constant for the complex coming apart. A high value points to weaker binding.

B1: PFV Env leader peptide residues 1-20 (peptide, UniProt P14351 1-20, looked up)
peptide: MAPPMTLQQWIIWKKMNKAH
notes: Envelope (Env) protein of Prototypic Foamy Virus, N-terminal leader peptide region, residues 1-20 (Met1 to His20); the text names M1, A2, P3, P4, M5, T6, L7, Q9, W10, W13, M16, A19, H20; also called Env_(1-20); Env(1-20); source: synthetic peptide, bought HPLC purified: Pepceuticals Ltd
In turn, B1 yielded a Kd in assay [1] of 7.5 µM. The binding result in the assay with PFV-Gag-NtD V14S, in the assay with PFV-Gag-NtD V18S/L21S, with PFV-Gag-NtD N29Q and in the assay with PFV-Gag-NtD L21N was “binds” throughout. Besides, the “fold decrease of affinity against wt PFV-Gag-NtD” value in the assay with PFV-Gag-NtD L21S came to 5 fold. Besides, in the assay with PFV-Gag-NtD V14S/L21S, the “fold reduction in binding against wt PFV-Gag-NtD” value is approximately 20 fold. For the same molecule, the Ka in assay [2] was 130000 M⁻¹.

(Values after article PMC3649970, “A Unique Spumavirus Gag N-terminal Domain with Functional Properties of Orthoretroviral Matrix and Capsid” (PLoS Pathogens, 2013).)
